The target in assay [1] is T1, eGFP C-terminal fused full-length human OASL (human, UniProt Q15646 1-514).
T1 construct: also called OASL–GFP; GFP-tagged full-length OASL; source: E. coli BL21 DE3 (pLys), purified (glutathione sepharose 4B, GST removed with PreScission protease); not shown: eGFP, C-terminal, kept
T1 sequence (looked up): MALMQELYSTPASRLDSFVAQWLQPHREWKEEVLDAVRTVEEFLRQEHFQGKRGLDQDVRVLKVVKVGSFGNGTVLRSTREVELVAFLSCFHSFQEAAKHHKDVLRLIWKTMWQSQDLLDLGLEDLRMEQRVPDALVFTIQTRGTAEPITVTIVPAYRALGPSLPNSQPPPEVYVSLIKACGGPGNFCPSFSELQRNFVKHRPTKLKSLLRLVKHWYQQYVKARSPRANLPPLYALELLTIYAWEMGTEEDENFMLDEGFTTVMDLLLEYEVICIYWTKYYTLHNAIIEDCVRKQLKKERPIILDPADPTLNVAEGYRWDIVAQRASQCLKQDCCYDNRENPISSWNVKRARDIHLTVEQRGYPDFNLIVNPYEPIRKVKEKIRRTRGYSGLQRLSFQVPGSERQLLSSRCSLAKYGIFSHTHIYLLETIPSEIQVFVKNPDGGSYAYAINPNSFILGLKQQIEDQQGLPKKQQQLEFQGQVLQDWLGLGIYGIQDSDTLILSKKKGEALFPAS
The assay is described as follows: in vitro recruitment into phase-separated droplets (fluorescence microscopy). As to conditions: both partners purified.

The target in assay [2] is T2, mCherry C-terminal fused full-length human RIPK3 (human, UniProt Q9Y572 1-518).
T2 construct: also called RIPK3–mCherry; mCherry-tagged full-length RIPK3; source: E. coli BL21 DE3 (pLys), purified (glutathione sepharose 4B, GST removed with PreScission protease); not shown: mCherry, C-terminal, kept
The assay is described as above. As to conditions: both partners purified.

B1: BFP C-terminal fused full-length human ZBP1 (natural protein, UniProt Q9H171 1-429, looked up)
chain: MAQAPADPGREGHLEQRILQVLTEAGSPVKLAQLVKECQAPKRELNQVLYRMKKELKVSLTSPATWCLGGTDPEGEGPAELALSSPAERPQQHAATIPETPGPQFSQQREEDIYRFLKDNGPQRALVIAQALGMRTAKDVNRDLYRMKSRHLLDMDEQSKAWTIYRPEDSGRRAKSASIIYQHNPINMICQNGPNSWISIANSEAIQIGHGNIITRQTVSREDGSAGPRHLPSMAPGDSSTWGTLVDPWGPQDIHMEQSILRRVQLGHSNEMRLHGVPSEGPAHIPPGSPPVSATAAGPEASFEARIPSPGTHPEGEAAQRIHMKSCFLEDATIGNSNKMSISPGVAGPGGVAGSGEGEPGEDAGRRPADTQSRSHFPRDIGQPITPSHSKLTPKLETMTLGNRSHKAAEGSHYVDEASHEGSWWGGGI
notes: also called ZBP1–BFP; not shown: BFP, C-terminal, kept
B1: the binding result in assay [1] is given as “binds”.

B2: purified untagged full-length OASL (natural protein, human, UniProt Q15646 1-514, looked up)
chain: T1 sequence (looked up)
notes: also called purified human OASL protein; source: purified
With B2, the binding result in assay [2] was “binds”.

B3: mCherry C-terminal fused C-terminal unstructured region of human RIPK3 (RIPK3 295–518) (domain or fragment, UniProt Q9Y572 295-518, looked up)
chain: NAAVSTVKDFLSQLRSSNRRFSIPESGQGGTEMDGFRRTIENQHSRNDVMVSEWLNKLNLEEPPSSVPKKCPSLTKRSRAQEEQVPQAWTAGTSSDSMAQPPQTPETSTFRNQMPSPTSTGTPSPGPRGNQGAERQGMNWSCRTPEPNPVTGRPLVNIYNCSGVQVGDNNYLTMQQTTALPTWGLAPSGKGRGLQHPPPVGSQEGPKDPEAWSRPQGWYNHSGK
notes: also called RIPK3_(295–518)–mCherry; C-terminal RIPK3_(295–518); source: E. coli BL21 DE3 (pLys), purified (glutathione sepharose 4B, GST removed with PreScission protease); not shown: mCherry, C-terminal, kept
As for B3, the binding result in assay [1] is recorded as “binds”.

Source of the values: paper PMC9859756, “OASL phase condensation induces amyloid-like fibrillation of RIPK3 to promote virus-induced necroptosis” (Nature Cell Biology, 2023).
